Reference: US20250215100A1 (HARBOUR BIOMED SHANGHAI, published 2025)

How the values were obtained:
human CD40 on cells [1] = biological target: T1, human CD40 on cells (human, UniProt P25942 21-277); assay: FACS, Raji cells
T1 construct: whole, on cells; The cell line used is named in each row's assay; also called hCD40; TNFRSF5
Source text: (§1) Flow cytometry (FACS) was used to detect the binding ability of the CD40 antibody to cells, such as, CHO-K1/hCD40 highly expressing human CD40 (constructed by Beijing Kyinno Biotechnology), CHO-K1/cyCD40 highly expressing cynomolgus monkey CD40 (constructed by Beijing Kyinno Biotechnology) and lymphoma cell highly expressing human CD40, Raji (ATCC, #CCL-86). Specifically, the cells were digested and resuspended with complete medium (F-12K for CHO-K1 cells; and RPMI-1640 for Raji cells); and the cells were adjusted to a cell density of 1×10⁶ cells/mL. The cells were seeded in a 96-well V-bottom plate (Corning, #3894) at 100 μL/well, and the antigen binding protein to be tested at 2x final concentration was then added at 100 μL/well and mixed evenly, with the highest final concentration of the antigen binding protein of 300 nM, a total of 8 concentrations, and 5-fold concentration gradient dilution. hIgG (Crownbio, #C0002) was used as a negative control, and the positive control molecule was the molecule in Table 1-5. The cells were incubated at 4° C. for 1 hours in the dark. After the incubation, the cells were rinsed twice by adding pre-chilled PBS at 100 μL/well, and centrifuged at 500 g at 4° C. for 5 minutes, and the supernatant was discarded. Then, a fluorescent secondary antibody (goat anti-human IgG (H+L) secondary antibody, Alexa Fluor® 488 conjugate, Invitrogen, #A11013, 1:1000 dilution) was added at 100 µL/well, and the cells were incubated at 4° C. for 30 minutes in the dark. The cells were washed twice with pre-chilled PBS at 200 μL/well, and centrifuged at 500 g at 4° C. for 5 minutes, and the supernatant was discarded. Finally, the cells were resuspended in pre-chilled PBS at 200 μL/well. The fluorescence signal values were read using a BD FACS CANTOII flow cytometer or ACEA NovoCyte flow cytometer, and the data were processed and analyzed using FlowJo v10 software (FlowJo, LLC).
(§2) Data processing and graphical analysis were performed using GraphPad Prism 8 software. The binding curve of the antibody to the target cell and parameters, such as EC50 value were obtained by four-parameter nonlinear fitting.

human CD40 on cells [2] = biological target: T1, human CD40 on cells; assay: FACS, CHO-K1/hCD40 cells
Source text: as §1, §2

human CD40 on cells [3] = biological target: T1, human CD40 on cells; assay: cell-based or functional assay
[4] = biological target: T2, cynomolgus monkey CD40 on cells (cynomolgus monkey, UniProt G7PG38 21-278); assay: FACS, CHO-K1/cyCD40 cells
T2 construct: also called cyCD40; CHO-K1/cyCD40
Source text: as §1, §2

T1 sequence (P25942 21-277): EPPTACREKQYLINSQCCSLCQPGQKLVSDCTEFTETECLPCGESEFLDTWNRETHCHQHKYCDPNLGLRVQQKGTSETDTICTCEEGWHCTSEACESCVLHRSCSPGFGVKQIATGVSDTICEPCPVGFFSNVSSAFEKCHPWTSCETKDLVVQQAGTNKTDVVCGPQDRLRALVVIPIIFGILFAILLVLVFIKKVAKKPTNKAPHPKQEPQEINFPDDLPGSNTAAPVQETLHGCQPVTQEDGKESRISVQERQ
T2 sequence (G7PG38 entry or part of it limits assumed): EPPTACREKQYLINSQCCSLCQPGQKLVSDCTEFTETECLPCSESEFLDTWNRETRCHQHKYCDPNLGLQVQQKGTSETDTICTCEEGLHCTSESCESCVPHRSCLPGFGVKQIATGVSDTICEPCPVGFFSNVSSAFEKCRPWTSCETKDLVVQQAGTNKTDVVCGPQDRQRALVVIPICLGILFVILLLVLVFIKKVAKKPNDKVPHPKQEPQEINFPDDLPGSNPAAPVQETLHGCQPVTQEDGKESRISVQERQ

| EC50 (human CD40 on cells [1]) [nM] | Maximum MFI (human CD40 on cells [1]) [MFI] | EC50 (human CD40 on cells [2]) [nM] | Maximum MFI (human CD40 on cells [2]) [MFI] | EC50 (nM), crosslinked, HEK293-hCD40-NFkB reporter (human CD40 on cells [3]) [nM] | EC50 (nM), uncrosslinked, HEK293-hCD40-NFkB reporter (human CD40 on cells [3]) [nM] | Fold (EC50 in the absence of crosslinking/EC50 in the presence of crosslinking) (human CD40 on cells [3]) [fold] | Maximum fold (fold), crosslinked (human CD40 on cells [3]) [fold] | Maximum fold (fold), uncrosslinked (human CD40 on cells [3]) [fold] | EC50 [4] [nM] | Maximum MFI [4] [MFI] | Binder |
| --- | --- | --- | --- | --- | --- | --- | --- | --- | --- | --- | --- |
| 0.332 | 9050 | 6.67 | 88600 | 0.098 | 0.173 | 1.77 | 5.76 | 4.58 | 4.41 | 51800 | PR006239 (antibody, human IgG1, kappa, Variable regions of PR003379 on human IgG1 with L234A, L235A, G237A; no mutation in the variable region) heavy: QVQLVQSGAEVKKPGASVKVSCKASGYTFAGYYMYWVRQAPGQGLEWMGWINPDSGAPTYAQKFQGRVTMTRDTSISTAYMELSRLRSDDTAVYYCAREKIYYGSGNYYPSFDYWGQGTLVTVSSASTKGPSVFPLAPSSKSTSGGTAALGCLVKDYFPEPVTVSWNSGALTSGVHTFPAVLQSSGLYSLSSVVTVPSSSLGTQTYICNVNHKPSNTKVDKKVEPKSCDKTHTCPPCPAPEAAGAPSVFLFPPKPKDTLMISRTPEVTCVVVDVSHEDPEVKFNWYVDGVEVHNAKTKPREEQYNSTYRVVSVLTVLHQDWLNGKEYKCKVSNKALPAPIEKTISKAKGQPREPQVYTLPPSREEMTKNQVSLTCLVKGFYPSDIAVEWESNGQPENNYKTTPPVLDSDGSFFLYSKLTVDKSRWQQGNVFSCSVMHEALHNHYTQKSLSLSPGK light: DIQLTQSPSFLSASVGDRVTITCRASQGISSYLAWYQQKPGKAPKLLIYAASTLQSGVPSRFSGSGSGTEFTLTISSLQPEDFATYYCQQLNSYPWTFGQGTKVEIKRTVAAPSVFIFPPSDEQLKSGTASVVCLLNNFYPREAKVQWKVDNALQSGNSQESVTEQDSKDSTYSLSSTLTLSKADYEKHKVYACEVTHQGLSSPVTKSFNRGEC |
| 0.356 | 8870 | 4.9 | 79400 | 0.109 | 0.905 | 8.28 | 5.54 | 4.92 | 4.41 | 48000 | PR006495 (antibody, human IgG1, kappa, V domains shown, PR003379 variant L:N92A; human IgG1 L234A, L235A, G237A) VH: QVQLVQSGAEVKKPGASVKVSCKASGYTFAGYYMYWVRQAPGQGLEWMGWINPDSGAPTYAQKFQGRVTMTRDTSISTAYMELSRLRSDDTAVYYCAREKIYYGSGNYYPSFDYWGQGTLVTVSS VL: DIQLTQSPSFLSASVGDRVTITCRASQGISSYLAWYQQKPGKAPKLLIYAASTLQSGVPSRFSGSGSGTEFTLTISSLQPEDFATYYCQQLASYPWTFGQGTKVEIKR |
| 0.277 | 9300 | 4.8 | 88200 | 0.217 | 0.43 | 1.98 | 5.03 | 4.43 | 3.5 | 49700 | PR006496 (antibody, human IgG1, kappa, V domains shown, PR003379 variant L:N92F; human IgG1 L234A, L235A, G237A) VH: QVQLVQSGAEVKKPGASVKVSCKASGYTFAGYYMYWVRQAPGQGLEWMGWINPDSGAPTYAQKFQGRVTMTRDTSISTAYMELSRLRSDDTAVYYCAREKIYYGSGNYYPSFDYWGQGTLVTVSS VL: DIQLTQSPSFLSASVGDRVTITCRASQGISSYLAWYQQKPGKAPKLLIYAASTLQSGVPSRFSGSGSGTEFTLTISSLQPEDFATYYCQQLFSYPWTFGQGTKVEIKR |
| 0.252 | 9200 | 5.09 | 92300 | 0.158 | 0.479 | 3.03 | 4.77 | 4.61 | 3.54 | 51700 | PR006497 (antibody, human IgG1, kappa, V domains shown, PR003379 variant L:N92Y; human IgG1 L234A, L235A, G237A) VH: QVQLVQSGAEVKKPGASVKVSCKASGYTFAGYYMYWVRQAPGQGLEWMGWINPDSGAPTYAQKFQGRVTMTRDTSISTAYMELSRLRSDDTAVYYCAREKIYYGSGNYYPSFDYWGQGTLVTVSS VL: DIQLTQSPSFLSASVGDRVTITCRASQGISSYLAWYQQKPGKAPKLLIYAASTLQSGVPSRFSGSGSGTEFTLTISSLQPEDFATYYCQQLYSYPWTFGQGTKVEIKR |
